Values quoted from earlier work, collected in publication PMC7723891.

Biological target: Spike RBD (SARS-CoV-2) (UniProt P0DTC2)
Test: Biacore

With CD147 (from UniProt P35613) as the substance, how does the Kd read?
The Kd was 185 nM.
